Measurements published in PMC5490006 (Nature Communications, 2017).

B1: Mcm7 (natural protein, budding yeast, UniProt P38132 1-845, looked up)
chain: MSAALPSIQLPVDYNNLFNEITDFLVTFKQDTLSSDATRNENEDENLDAENIEQHLLEKGPKYMAMLQKVANRELNSVIIDLDDILQYQNEKFLQGTQADDLVSAIQQNANHFTELFCRAIDNNMPLPTKEIDYKDDVLDVILNQRRLRNERMLSDRTNEIRSENLMDTTMDPPSSMNDALREVVEDETELFPPNLTRRYFLYFKPLSQNCARRYRKKAISSKPLSVRQIKGDFLGQLITVRGIITRVSDVKPAVEVIAYTCDQCGYEVFQEVNSRTFTPLSECTSEECSQNQTKGQLFMSTRASKFSAFQECKIQELSQQVPVGHIPRSLNIHVNGTLVRSLSPGDIVDVTGIFLPAPYTGFKALKAGLLTETYLEAQFVRQHKKKFASFSLTSDVEERVMELITSGDVYNRLAKSIAPEIYGNLDVKKALLLLLVGGVDKRVGDGMKIRGDINVCLMGDPGVAKSQLLKAICKISPRGVYTTGKGSSGVGLTAAVMKDPVTDEMILEGGALVLADNGICCIDEFDKMDESDRTAIHEVMEQQTISISKAGINTTLNARTSILAAANPLYGRYNPRLSPLDNINLPAALLSRFDILFLMLDIPSRDDDEKLAEHVTYVHMHNKQPDLDFTPVEPSKMREYIAYAKTKRPVMSEAVNDYVVQAYIRLRQDSKREMDSKFSFGQATPRTLLGIIRLSQALAKLRLADMVDIDDVEEALRLVRVSKESLYQETNKSKEDESPTTKIFTIIKKMLQETGKNTLSYENIVKTVRLRGFTMLQLSNCIQEYSYLNVWHLINEGNTLKFVDDGTMDTDQEDSLVSTPKLAPQTTASANVSAQDSDIDLQDA
notes: Mcm7, subunit of the budding yeast MCM (Mcm2-7), expressed as an individual subunit; source: E. coli, purified
B2: Cdt1-MC fused to His-SUMO (domain or fragment, S. cerevisiae, UniProt P47112 272-604, looked up)
chain: SKGEGTIANHLLEQQIKAFPKVAQQYYPRELSILRLQDAMKFVKELFTVCETVLSLNALSRSTGVPPELHVLLPQISSMMKRKIVQDDILKLLTIWSDAYVVELNSRGELTMNLPKRDNLTTLTNKSRTLAFVERAESWYQQVIASKDEIMTDVPAFKINKRRSSSNSKTVLSSKVQTKSSNANALNNSRYLANSKENFMYKEKMPDSQANLMDRLRERERRSAALLSQRQKRYQQFLAMKMTQVFDILFSLTRGQPYTETYLSSLIVDSLQDSNNPIGTKEASEILAGLQGILPMDISVHQVDGGLKVYRWNSLDKNRFSKLLQIHKSKQQD
notes: source: His-SUMO fusion
B3: Cdt1 fragment 495–604 fused to His-SUMO (domain or fragment, S. cerevisiae, UniProt P47112 495-604, looked up)
chain: AALLSQRQKRYQQFLAMKMTQVFDILFSLTRGQPYTETYLSSLIVDSLQDSNNPIGTKEASEILAGLQGILPMDISVHQVDGGLKVYRWNSLDKNRFSKLLQIHKSKQQD
notes: assigned by the order of description; The crystallised protein had the tag removed; also called CTD; source: His-SUMO fusion; E. coli is told for the crystallised fragment of the same limits
B4: Cdt1 fragment 271–496 fused to His-SUMO (domain or fragment, S. cerevisiae, UniProt P47112 271-496, looked up)
chain: SSKGEGTIANHLLEQQIKAFPKVAQQYYPRELSILRLQDAMKFVKELFTVCETVLSLNALSRSTGVPPELHVLLPQISSMMKRKIVQDDILKLLTIWSDAYVVELNSRGELTMNLPKRDNLTTLTNKSRTLAFVERAESWYQQVIASKDEIMTDVPAFKINKRRSSSNSKTVLSSKVQTKSSNANALNNSRYLANSKENFMYKEKMPDSQANLMDRLRERERRSAA
notes: source: His-SUMO fusion
B5: Cdt1 (natural protein, S. cerevisiae, UniProt P47112 1-604, looked up)
chain: MSGTANSRRKEVLRVPVIDLNRVSDEEQLLPVVRAILLQHDTFLLKNYANKAVLDALLAGLTTKDLPDTSQGFDANFTGTLPLEDDVWLEQYIFDTDPQLRFDRKCRNESLCSIYSRLFKLGLFFAQLCVKSVVSSAELQDCISTSHYATKLTRYFNDNGSTHDGADAGATVLPTGDDFQYLFERDYVTFLPTGVLTIFPCAKAIRYKPSTMATTDNSWVSIDEPDCLLFHTGTLLARWSQGMHTTSPLQIDPRANIVSLTIWPPLTTPISSKGEGTIANHLLEQQIKAFPKVAQQYYPRELSILRLQDAMKFVKELFTVCETVLSLNALSRSTGVPPELHVLLPQISSMMKRKIVQDDILKLLTIWSDAYVVELNSRGELTMNLPKRDNLTTLTNKSRTLAFVERAESWYQQVIASKDEIMTDVPAFKINKRRSSSNSKTVLSSKVQTKSSNANALNNSRYLANSKENFMYKEKMPDSQANLMDRLRERERRSAALLSQRQKRYQQFLAMKMTQVFDILFSLTRGQPYTETYLSSLIVDSLQDSNNPIGTKEASEILAGLQGILPMDISVHQVDGGLKVYRWNSLDKNRFSKLLQIHKSKQQD
notes: Cdt1, S. cerevisiae; also called Cdt1 WT; wild-type Cdt1; source: recombinant, purified
B6: Cdt1 within purified Cdt1–MCM complexes (natural protein, S. cerevisiae, UniProt P47112 1-604, looked up)
chain: B5 chain
notes: also called Cdt1 (in MCM-GFP,FLAG–Cdt1 complexes and in the Cdt1–MCM complex used for electron microscopy); source: purified Cdt1-MCM complex

Experiments:
Settings in all cases: both partners purified
Mcm3 = target: T1, Mcm3 (budding yeast, UniProt P24279 1-971); test: SEC; 10 μg of each Mcm subunit combined as pairs 3/7, 4/7 and 2/6, dialysed against buffer A, fractionated over Superdex 200 PC 3.2/30 in buffer A; fractions with the dimers pooled
T1 construct: Mcm3, subunit of the budding yeast MCM (Mcm2-7), expressed as an individual subunit; source: E. coli, purified

Mcm4 = target: T2, Mcm4 (budding yeast, UniProt P30665 1-933); test: as above
T2 construct: Mcm4, subunit of the budding yeast MCM (Mcm2-7), expressed as an individual subunit; source: E. coli, purified
T2 sequence (looked up): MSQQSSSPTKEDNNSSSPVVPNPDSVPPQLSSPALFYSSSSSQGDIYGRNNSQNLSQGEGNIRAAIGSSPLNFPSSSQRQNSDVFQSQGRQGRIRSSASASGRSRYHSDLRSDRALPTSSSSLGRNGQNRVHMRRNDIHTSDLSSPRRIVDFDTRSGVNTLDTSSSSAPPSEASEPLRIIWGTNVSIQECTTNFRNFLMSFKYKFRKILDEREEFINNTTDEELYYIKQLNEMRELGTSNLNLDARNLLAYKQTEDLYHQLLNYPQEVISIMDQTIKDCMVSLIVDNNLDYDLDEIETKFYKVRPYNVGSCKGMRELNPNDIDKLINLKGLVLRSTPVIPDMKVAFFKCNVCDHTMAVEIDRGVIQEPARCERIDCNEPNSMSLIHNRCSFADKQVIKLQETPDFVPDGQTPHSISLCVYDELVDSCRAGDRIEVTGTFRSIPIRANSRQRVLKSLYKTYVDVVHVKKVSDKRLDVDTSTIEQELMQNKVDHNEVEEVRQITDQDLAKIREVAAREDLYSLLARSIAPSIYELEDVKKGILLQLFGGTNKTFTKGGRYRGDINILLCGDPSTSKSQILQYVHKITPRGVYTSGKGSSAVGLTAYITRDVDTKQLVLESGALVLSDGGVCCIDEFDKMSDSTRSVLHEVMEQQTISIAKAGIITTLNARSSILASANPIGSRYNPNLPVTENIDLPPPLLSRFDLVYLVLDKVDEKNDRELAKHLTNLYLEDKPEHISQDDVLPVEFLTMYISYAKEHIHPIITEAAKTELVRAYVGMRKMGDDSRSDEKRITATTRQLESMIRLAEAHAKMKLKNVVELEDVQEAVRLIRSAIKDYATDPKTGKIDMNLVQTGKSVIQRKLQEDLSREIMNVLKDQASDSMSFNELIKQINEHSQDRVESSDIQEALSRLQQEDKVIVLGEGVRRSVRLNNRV

Mcm6 [1] = target: T3, Mcm6 (budding yeast, UniProt P53091 1-1017); test: pull-down; Cdt1-His-SUMO fragments held on Ni-NTA magnetic beads, Mcm2 or Mcm6 in solution; 10 μg of each protein, buffer B (25 mM Hepes-KOH pH 7.6, 0.02% NP-40, 10% glycerol, 0.1 M K glutamate), 60 min at 4 °C; Coomassie
T3 construct: Mcm6, subunit of the budding yeast MCM (Mcm2-7), expressed as an individual subunit; called Mcm6 fl and the full-length protein; also called Mcm6 fl; full-length Mcm6; source: E. coli, purified

Mcm2 = target: T4, Mcm2 (budding yeast, UniProt P29469 1-868); test: as above
T4 construct: Mcm2, subunit of the budding yeast MCM (Mcm2-7), expressed as an individual subunit; source: E. coli, purified
T4 sequence (looked up): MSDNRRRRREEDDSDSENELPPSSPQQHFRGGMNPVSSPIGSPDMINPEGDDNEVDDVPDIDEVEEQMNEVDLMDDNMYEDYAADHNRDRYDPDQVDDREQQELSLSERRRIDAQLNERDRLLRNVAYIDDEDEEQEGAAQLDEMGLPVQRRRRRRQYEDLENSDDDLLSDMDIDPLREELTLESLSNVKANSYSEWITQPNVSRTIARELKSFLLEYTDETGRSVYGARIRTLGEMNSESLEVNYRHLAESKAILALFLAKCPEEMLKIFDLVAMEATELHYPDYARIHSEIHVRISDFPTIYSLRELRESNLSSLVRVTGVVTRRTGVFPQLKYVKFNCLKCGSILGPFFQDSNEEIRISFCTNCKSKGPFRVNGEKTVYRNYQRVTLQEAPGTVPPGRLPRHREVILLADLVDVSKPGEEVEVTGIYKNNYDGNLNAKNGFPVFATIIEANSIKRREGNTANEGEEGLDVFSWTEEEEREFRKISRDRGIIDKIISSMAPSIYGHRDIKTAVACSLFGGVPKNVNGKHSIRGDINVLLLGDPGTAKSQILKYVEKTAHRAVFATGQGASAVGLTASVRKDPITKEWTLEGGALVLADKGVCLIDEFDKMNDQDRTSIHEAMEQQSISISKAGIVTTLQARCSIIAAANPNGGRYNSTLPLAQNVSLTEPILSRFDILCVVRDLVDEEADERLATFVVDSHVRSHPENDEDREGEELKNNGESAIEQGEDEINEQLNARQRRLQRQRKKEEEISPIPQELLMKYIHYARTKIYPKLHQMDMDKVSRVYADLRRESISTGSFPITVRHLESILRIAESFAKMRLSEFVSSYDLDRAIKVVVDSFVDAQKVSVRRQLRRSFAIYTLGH

Mcm6 [2] = target: T3, Mcm6; test: co-IP; purified Mcm2-7 subunits (0.5 μM) individually incubated with purified Cdt1 (0.5 μM) or buffer, room temperature 60 min, buffer A/2 mM 2-mercaptoethanol; immunoprecipitation with polyclonal anti-Cdt1 antibody on protein A sepharose, 2 h at 4 °C; SDS-PAGE, Coomassie
[3] = target: T5, Mcm6 within purified Cdt1–MCM complexes (budding yeast, UniProt P53091 1-1017); test: negative-stain electron microscopy; single-particle EM of the Cdt1-MCM complex, apo and with ATPγS, 2% uranyl formate; 3D reconstruction (20.4 and 18.0 Å) with docking of MCM atomic structures and of the Cdt1 NM crystal structure
T5 construct: Mcm6, yeast MCM subunit, as part of the Cdt1-MCM complex; source: purified Cdt1-MCM complex

[4] = target: T6, Mcm6 tagged with GFP-FLAG, within an MCM-GFP,FLAG–Cdt1 complex (budding yeast, UniProt P53091 1-1017); test: cross-linking; MCM-GFP,FLAG-Cdt1 complexes (20 μg) crosslinked with 25 μM BS3, 30 min room temperature, buffer B; denatured with SDS; immunoprecipitation with anti-FLAG beads under denaturing conditions; western blot against Cdt1
T6 construct: Mcm6, budding yeast MCM subunit; also called Mcm6-GFP-FLAG; source: purified MCM-GFP,FLAG-Cdt1 complex; not shown: GFP, C-terminal, kept; FLAG, C-terminal, kept
T6 sequence (P53091 whole entry, one chain of several): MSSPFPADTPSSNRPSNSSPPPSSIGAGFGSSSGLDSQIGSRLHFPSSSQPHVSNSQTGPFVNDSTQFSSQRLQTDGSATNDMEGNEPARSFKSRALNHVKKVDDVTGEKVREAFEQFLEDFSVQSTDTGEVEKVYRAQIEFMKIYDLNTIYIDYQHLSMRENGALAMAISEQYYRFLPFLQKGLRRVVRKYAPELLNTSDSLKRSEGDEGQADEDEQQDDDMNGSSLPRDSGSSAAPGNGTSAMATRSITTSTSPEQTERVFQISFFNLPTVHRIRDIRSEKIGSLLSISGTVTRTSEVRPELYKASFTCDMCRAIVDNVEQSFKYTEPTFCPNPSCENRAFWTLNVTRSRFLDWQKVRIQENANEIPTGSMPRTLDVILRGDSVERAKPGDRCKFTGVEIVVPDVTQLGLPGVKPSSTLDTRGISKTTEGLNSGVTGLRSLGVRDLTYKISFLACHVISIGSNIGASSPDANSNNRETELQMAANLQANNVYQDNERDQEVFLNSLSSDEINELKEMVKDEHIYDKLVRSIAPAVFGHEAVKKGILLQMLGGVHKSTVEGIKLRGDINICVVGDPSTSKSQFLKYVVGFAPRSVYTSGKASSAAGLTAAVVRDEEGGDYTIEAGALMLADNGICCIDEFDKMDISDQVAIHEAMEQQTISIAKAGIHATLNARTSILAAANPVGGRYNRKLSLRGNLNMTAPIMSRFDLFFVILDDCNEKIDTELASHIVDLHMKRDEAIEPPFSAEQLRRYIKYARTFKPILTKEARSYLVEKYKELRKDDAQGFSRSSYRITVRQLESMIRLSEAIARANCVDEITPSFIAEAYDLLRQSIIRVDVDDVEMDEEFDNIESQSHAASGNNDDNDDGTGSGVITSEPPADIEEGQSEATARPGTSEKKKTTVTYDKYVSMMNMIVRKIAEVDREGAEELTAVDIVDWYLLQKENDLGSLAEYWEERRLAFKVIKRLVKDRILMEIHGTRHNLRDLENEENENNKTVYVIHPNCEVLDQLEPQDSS

T3 sequence (P53091 whole entry, the tested form may be a part): as the sequence (P53091 whole entry, one chain of several) above
T1 sequence (P24279 whole entry): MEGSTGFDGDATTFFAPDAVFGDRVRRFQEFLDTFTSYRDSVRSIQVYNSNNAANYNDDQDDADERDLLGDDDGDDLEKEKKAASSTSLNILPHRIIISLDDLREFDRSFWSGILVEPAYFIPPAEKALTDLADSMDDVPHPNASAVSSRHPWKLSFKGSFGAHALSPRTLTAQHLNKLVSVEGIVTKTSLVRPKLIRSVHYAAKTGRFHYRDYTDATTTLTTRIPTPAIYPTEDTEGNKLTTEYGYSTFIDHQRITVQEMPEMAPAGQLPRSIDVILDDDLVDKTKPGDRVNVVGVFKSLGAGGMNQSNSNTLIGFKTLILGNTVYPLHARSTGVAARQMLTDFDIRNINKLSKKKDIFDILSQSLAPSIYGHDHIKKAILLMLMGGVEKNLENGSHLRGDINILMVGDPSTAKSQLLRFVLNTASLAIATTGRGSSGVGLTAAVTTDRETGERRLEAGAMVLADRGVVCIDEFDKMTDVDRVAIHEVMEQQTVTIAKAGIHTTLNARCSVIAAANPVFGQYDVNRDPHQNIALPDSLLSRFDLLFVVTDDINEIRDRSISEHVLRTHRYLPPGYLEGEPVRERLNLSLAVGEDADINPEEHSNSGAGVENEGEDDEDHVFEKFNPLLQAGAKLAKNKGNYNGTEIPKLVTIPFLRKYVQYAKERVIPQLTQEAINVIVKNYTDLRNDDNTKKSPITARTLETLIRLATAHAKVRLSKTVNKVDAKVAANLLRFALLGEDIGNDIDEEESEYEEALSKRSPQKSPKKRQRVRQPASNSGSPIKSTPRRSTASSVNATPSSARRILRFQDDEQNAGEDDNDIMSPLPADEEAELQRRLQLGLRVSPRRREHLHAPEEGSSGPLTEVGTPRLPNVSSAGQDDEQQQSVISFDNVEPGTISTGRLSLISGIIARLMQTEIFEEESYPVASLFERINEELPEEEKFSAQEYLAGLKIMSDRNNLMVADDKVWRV
T5 sequence (P53091 whole entry, one chain of several): as the sequence (P53091 whole entry, one chain of several) above

| Binder | binding result (Mcm6 [1]) | binding result (Mcm2) | also measured |
| --- | --- | --- | --- |
| B1 |  |  | binding result (Mcm3): binds; binding result (Mcm4): binds |
| B2 | binds | binds |  |
| B3 | binds | binds |  |
| B4 | binds | binds |  |
| B5 |  |  | binding result (Mcm6 [2]): binds |
| B6 |  |  | binding result [3]: binds; binding result [4]: binds |
